Earlier results as cited in PMC6503043.
Read-outs that look alike come from different tables or passages of the source.

Key:
CD28 (Homo sapiens) [1] = target: CD28 (Homo sapiens) (UniProt P10747)
CD28 (Homo sapiens) [2] = target: CD28 (Homo sapiens) (UniProt P10747); remark: listed apart in the source

Substance	Kd (CD28 (Homo sapiens) [1]) [µM]	Kd (CD28 (Homo sapiens) [2]) [µM]
B7-1 (from UniProt P33681)	5	–
B7-2 (from UniProt P42081)	–	20
